According to patent US20260028402A1 (published 2026):
Read-outs that look alike come from different tables or passages of the source.

Experiments:
HuCD100-His [1] = target: T1, HuCD100-His (human, UniProt Q92854 22-734); assay: ELISA; FIG. 5A
MusCD100-His [2] = target: T2, MusCD100-His (mouse, UniProt O09126 24-733); assay: ELISA
T2 chain: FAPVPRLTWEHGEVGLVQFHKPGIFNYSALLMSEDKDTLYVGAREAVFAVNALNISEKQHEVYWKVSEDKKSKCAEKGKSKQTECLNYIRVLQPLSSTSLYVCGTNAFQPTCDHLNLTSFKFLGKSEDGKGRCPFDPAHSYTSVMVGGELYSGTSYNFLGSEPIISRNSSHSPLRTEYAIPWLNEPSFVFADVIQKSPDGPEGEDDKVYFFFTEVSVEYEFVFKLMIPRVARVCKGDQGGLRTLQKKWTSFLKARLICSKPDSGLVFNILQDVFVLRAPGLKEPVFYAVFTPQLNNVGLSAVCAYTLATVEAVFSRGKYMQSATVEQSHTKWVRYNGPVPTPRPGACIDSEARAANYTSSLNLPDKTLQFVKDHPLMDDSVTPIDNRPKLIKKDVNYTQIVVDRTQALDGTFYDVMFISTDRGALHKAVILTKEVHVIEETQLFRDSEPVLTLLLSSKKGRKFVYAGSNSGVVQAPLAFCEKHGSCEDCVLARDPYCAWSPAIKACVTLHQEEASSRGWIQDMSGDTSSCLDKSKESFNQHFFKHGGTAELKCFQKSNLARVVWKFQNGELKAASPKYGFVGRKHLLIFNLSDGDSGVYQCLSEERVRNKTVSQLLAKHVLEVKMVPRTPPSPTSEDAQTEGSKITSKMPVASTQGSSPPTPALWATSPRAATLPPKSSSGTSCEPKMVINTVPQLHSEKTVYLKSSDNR

HuCD100-His [3] = target: T1, HuCD100-His; assay: ELISA
MusCD100-Fc = target: T3, MusCD100-Fc (mouse, UniProt O09126 24-733, biotinylated in the Plexin binding and blocking assays (sites not given)); assay: ELISA
T3 chain: T2 chain

[4] = target: T4, HuCD100-Fc (in-house prepared) (human, UniProt Q92854 22-734, biotinylated in the Plexin binding and blocking assays (sites not given)); assay: FACS blocking; HuPlexin-B1-HEK293, FIG. 12B
[5] = target: T4, HuCD100-Fc (in-house prepared); assay: FACS blocking; blocking of binding to HuPlexin-B1-HEK293
[6] = target: Human Semaphorin 4D/SEMA4D/CD100 Protein, Fc Tag (Acro, CD0-H5257) (human, UniProt Q92854 22-734); assay: ELISA; last HuCD100-Fc row
CynoCD100-Fc = CynoCD100-Fc (cynomolgus monkey); assay: ELISA
CynoCD100-His [7] = target: CynoCD100-His (cynomolgus monkey); assay: ELISA
[8] = target: full-length human CD100 protein HuCD100 on cells (human, UniProt Q92854 22-862); assay: FACS; HuPBMC cells
CynoCD100-His [9] = target: CynoCD100-His (cynomolgus monkey); assay: ELISA; remark: listed apart in the source
[10] = target: T4, HuCD100-Fc (in-house prepared); assay: ELISA; first HuCD100-Fc row
[11] = target: T5, full-length mouse CD100 protein MusCD100 on cells (mouse, UniProt O09126 24-861); assay: FACS
T5 chain: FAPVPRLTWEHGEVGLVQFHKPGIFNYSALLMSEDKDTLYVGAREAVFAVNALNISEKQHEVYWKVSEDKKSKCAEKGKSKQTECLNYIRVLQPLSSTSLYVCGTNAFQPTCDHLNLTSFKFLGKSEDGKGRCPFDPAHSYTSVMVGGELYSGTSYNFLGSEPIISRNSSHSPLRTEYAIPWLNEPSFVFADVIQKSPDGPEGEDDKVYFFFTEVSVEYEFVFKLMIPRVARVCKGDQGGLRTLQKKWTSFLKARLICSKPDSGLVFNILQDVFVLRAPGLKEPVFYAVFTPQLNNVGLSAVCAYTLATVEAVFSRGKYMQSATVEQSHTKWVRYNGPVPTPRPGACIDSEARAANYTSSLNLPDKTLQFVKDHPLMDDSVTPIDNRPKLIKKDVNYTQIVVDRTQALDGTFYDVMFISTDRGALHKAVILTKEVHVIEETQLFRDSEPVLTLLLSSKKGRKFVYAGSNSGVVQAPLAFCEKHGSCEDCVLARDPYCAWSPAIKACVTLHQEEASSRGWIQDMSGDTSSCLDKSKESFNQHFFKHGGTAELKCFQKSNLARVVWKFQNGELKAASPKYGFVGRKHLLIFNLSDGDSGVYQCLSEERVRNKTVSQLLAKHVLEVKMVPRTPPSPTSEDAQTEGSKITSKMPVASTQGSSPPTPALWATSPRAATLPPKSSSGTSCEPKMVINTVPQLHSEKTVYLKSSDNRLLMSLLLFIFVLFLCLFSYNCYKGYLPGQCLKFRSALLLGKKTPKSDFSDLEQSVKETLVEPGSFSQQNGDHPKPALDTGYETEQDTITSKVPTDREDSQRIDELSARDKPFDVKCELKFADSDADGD

HuCD100-His [12] = target: T1, HuCD100-His; assay: ELISA; FIG. 5D
MusCD100-His [13] = target: T2, MusCD100-His; assay: ELISA; FIG. 5E

EC50 (HuCD100-His [1]): 0.0383 nM
EC50 (MusCD100-His [2]): 0.174 µg/mL
EC50 (HuCD100-His [3]): 0.0804 µg/mL
EC50 (MusCD100-Fc): 0.136 µg/mL
IC50 [4]: 1.31 nM
IC50 [5]: 3.56 nM
EC50 [6]: 0.0659 µg/mL
EC50 (CynoCD100-Fc): 0.388 µg/mL
EC50 (CynoCD100-His [7]): 0.128 µg/mL
EC50 [8]: 0.412 nM
EC50 (CynoCD100-His [9]): 0.0938 nM
EC50 [10]: 0.0469 µg/mL
EC50 [11]: 0.274 nM
EC50 (HuCD100-His [12]): 0.0376 nM
EC50 (MusCD100-His [13]): 0.143 nM
B1: Pepinemab (antibody, V domains shown)
VH: QVQLVQSGAEVKKPGSSVKVSCKASGYSFSDYYMHWVRQAPGQGLEWMGQINPTTGGASYNQKFKGKATITVDKSTSTAYMELSSLRSEDTAVYYCARYYYGRHFDVWGQGTTVTVSS
VL: DIVMTQSPDSLAVSLGERATINCKASQSVDYDGDSYMNWYQQKPGQPPKLLIYAASNLESGVPDRFSGSGSGTDFTLTISSLQAEDVAVYYCQQSNEDPYTFGQGTKLEIK
